# Reference: patent US20240000833A1, “METHODS FOR EXPANDING A POPULATION OF ALVEOLAR MACROPHAGES IN A LONG TERM CULTURE” (Institut National de la Santé et de la Recherche Médicale, priority 2015, published 2024)
# What was measured:
# Format in all cases: cell-based, mouse
# [1] = system: alveolar macrophages (AM); assay: In vitro BrdU incorporation by alveolar macrophages after stimulation with GM-CSF; settings: cultured AM, 3 days after stimulation, 18 h BrdU pulse
# Procedure: (§1) Cell cycle analysis. In vitro proliferation of macrophages was assessed using the Cell Proliferation ELISA (BrdU, colorimetric; Roche) according to manufacturer's instructions. In brief, 10-20 thousand freshly isolated macrophages were plated per 96 well in a tissue culture dish in complete medium (DMEM, 10% FCS, 1% Pen/Strep, 1% Pyruvate, 1% Glutamate). After macrophages had attached to the plastic, plating medium was replaced with complete medium containing the respective cytokine at indicated concentration. On day 2 after stimulation, BrdU was added to the culture and BrdU incorporation was assessed on day 3.
# [2] = system: alveolar macrophages (AM); assay: Long-term liquid culture of alveolar macrophages in the presence of GM-CSF
# Procedure: For culture of alveolar macrophages, alveolar lavages were pooled from ten 1 mL 37° C. BAL washes (PBS, 2 mM EDTA, 2% FBS (GE Healthcare) per mouse and stored on ice. RBC lysis was then performed at room temperature (RT) for 3 minutes (RBC Lysis Buffer, Invitrogen). Cells were plated at a density of at least 1.1 million cells per 10 cm bacterial petri dish (Greiner Bio-One) or NUNC non treated 6 well plates (>0.45-5*10^6 per well) in complete medium (RPMI, 10% FCS, 1% Pen/Strep, 1% Pyruvate, 1% Glutamate) supplemented with 1-2% GM-CSF supernatant from J558L cells transfected with murine GM-CSF cDNA. Medium was partially changed every two-three days. Cells were replated only at confluency and only at least one day after medium change. To avoid cell death during detachment, cells were detached with Accutase (StemCells Technologies) and 2 mM EGTA for 15 minutes at 37° C. without agitation or pipetting and careful monitored under the microscope for the detachment process. Only after a large number of cells started to round up and float, cells were carefully detached with a p1000 pipettte.
# Cell Culture. […]
# [3] = system: peritoneal macrophages (PM); assay: In vitro BrdU incorporation by peritoneal macrophages after stimulation with GM-CSF; settings: cultured PM, 3 days after stimulation, 18 h BrdU pulse
# Procedure: Peritoneal macrophages were collected by peritoneal washout using 10 mL PBS containing 2 mM EDTA (Sigma). Red cell lysis was performed (RBC Lysis Buffer, Invitrogen) and cells were filtered through a 70 um mesh before further processing. Medium changes occurred every 3-4 days.
# as §1
molecule,measurement,setting,value
"GM-CSF: cytokine growth factor for leukocytes; used as supernatant from J558L cells transfected with murine GM-CSF cDNA (protein, UniProt P01587 18-141, looked up) Granulocyte-macrophage …: APTRSPITVTRPWKHVEAIKEALNLLDDMPVTLNEEVEVVSNEFSFKKLTCVQTRLKIFEQGLRGNFTKLKGALNMTASYYQTYCPPTPETDCETQVTTYADFIDSLKTFLTDIPFECKKPGQK",BrdU incorporation in response to GM-CSF,[1],incorprorated BrdU
same,duration of expansion of AM in long-term liquid culture,[2],several months
same,BrdU incorporation in response to GM-CSF,[3],not PM incorprorated BrdU
